According to US20180155451A1 (published 2018):

T1: FcγRIIb (human, UniProt P31994 43-217)
T1 construct: extracellular domain; also called FcgRIIb; 2b; not shown: His tag at the C terminus
T1 sequence (looked up): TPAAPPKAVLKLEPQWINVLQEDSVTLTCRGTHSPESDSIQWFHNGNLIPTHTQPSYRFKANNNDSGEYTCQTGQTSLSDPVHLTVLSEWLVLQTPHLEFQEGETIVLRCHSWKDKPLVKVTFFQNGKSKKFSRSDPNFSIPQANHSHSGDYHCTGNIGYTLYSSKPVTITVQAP

B1: GpH7-A5/GpH7-B3 variant D265_20W/GpL16-k0 (antibody, human IgG1, kappa)
heavy 1: not shown
heavy 2: not shown
light: DIVMTQSPLSLPVTPGEPASISCQASESLVHSNRNTYLHWYLQKPGQSPQLLIYKVSNRFSGVPDRFSGSGSGTDFTLKISRVEAEDVGVYYCSQNTHVPPTFGQGTKVEIERTVAAPSVFIFPPSDEQLKSGTASVVCLLNNFYPREAKVQWKVDNALQSGNSQESVTEQDSKDSTYSLSSTLTLSKADYEKHKVYACEVTHQGLSSPVTKSFNRGEC
notes: He Ab: mutation only in the GpH7-B3 H chain; EU numbering; also called He Ab
B2: GpH7-A5/GpH7-B3 variant D265_18N/GpL16-k0 (antibody, human IgG1, kappa)
heavy 1: not shown
heavy 2: not shown
light: DIVMTQSPLSLPVTPGEPASISCQASESLVHSNRNTYLHWYLQKPGQSPQLLIYKVSNRFSGVPDRFSGSGSGTDFTLKISRVEAEDVGVYYCSQNTHVPPTFGQGTKVEIERTVAAPSVFIFPPSDEQLKSGTASVVCLLNNFYPREAKVQWKVDNALQSGNSQESVTEQDSKDSTYSLSSTLTLSKADYEKHKVYACEVTHQGLSSPVTKSFNRGEC
notes: as for B1
B3: GpH7-A5/GpH7-B3 variant D265_11K/GpL16-k0 (antibody, human IgG1, kappa)
heavy 1: not shown
heavy 2: not shown
light: DIVMTQSPLSLPVTPGEPASISCQASESLVHSNRNTYLHWYLQKPGQSPQLLIYKVSNRFSGVPDRFSGSGSGTDFTLKISRVEAEDVGVYYCSQNTHVPPTFGQGTKVEIERTVAAPSVFIFPPSDEQLKSGTASVVCLLNNFYPREAKVQWKVDNALQSGNSQESVTEQDSKDSTYSLSSTLTLSKADYEKHKVYACEVTHQGLSSPVTKSFNRGEC
notes: as for B1
B4: GpH7-A5/GpH7-B3 variant H268_06M/GpL16-k0 (antibody, human IgG1, kappa)
heavy 1: not shown
heavy 2: not shown
light: DIVMTQSPLSLPVTPGEPASISCQASESLVHSNRNTYLHWYLQKPGQSPQLLIYKVSNRFSGVPDRFSGSGSGTDFTLKISRVEAEDVGVYYCSQNTHVPPTFGQGTKVEIERTVAAPSVFIFPPSDEQLKSGTASVVCLLNNFYPREAKVQWKVDNALQSGNSQESVTEQDSKDSTYSLSSTLTLSKADYEKHKVYACEVTHQGLSSPVTKSFNRGEC
notes: as for B1
B5: GpH7-A5/GpH7-B3 variant D265_14T/GpL16-k0 (antibody, human IgG1, kappa)
heavy 1: not shown
heavy 2: not shown
light: DIVMTQSPLSLPVTPGEPASISCQASESLVHSNRNTYLHWYLQKPGQSPQLLIYKVSNRFSGVPDRFSGSGSGTDFTLKISRVEAEDVGVYYCSQNTHVPPTFGQGTKVEIERTVAAPSVFIFPPSDEQLKSGTASVVCLLNNFYPREAKVQWKVDNALQSGNSQESVTEQDSKDSTYSLSSTLTLSKADYEKHKVYACEVTHQGLSSPVTKSFNRGEC
notes: as for B1
B6: GpH7-A5/GpH7-B3 variant D265_10E/GpL16-k0 (antibody, human IgG1, kappa)
heavy 1: not shown
heavy 2: not shown
light: DIVMTQSPLSLPVTPGEPASISCQASESLVHSNRNTYLHWYLQKPGQSPQLLIYKVSNRFSGVPDRFSGSGSGTDFTLKISRVEAEDVGVYYCSQNTHVPPTFGQGTKVEIERTVAAPSVFIFPPSDEQLKSGTASVVCLLNNFYPREAKVQWKVDNALQSGNSQESVTEQDSKDSTYSLSSTLTLSKADYEKHKVYACEVTHQGLSSPVTKSFNRGEC
notes: as for B1
B7: GpH7-A5/GpH7-B3 variant S267_12R/GpL16-k0 (antibody, human IgG1, kappa)
heavy 1: not shown
heavy 2: not shown
light: DIVMTQSPLSLPVTPGEPASISCQASESLVHSNRNTYLHWYLQKPGQSPQLLIYKVSNRFSGVPDRFSGSGSGTDFTLKISRVEAEDVGVYYCSQNTHVPPTFGQGTKVEIERTVAAPSVFIFPPSDEQLKSGTASVVCLLNNFYPREAKVQWKVDNALQSGNSQESVTEQDSKDSTYSLSSTLTLSKADYEKHKVYACEVTHQGLSSPVTKSFNRGEC
notes: as for B1
B8: GpH7-A5/GpH7-B3 variant D265_19Q/GpL16-k0 (antibody, human IgG1, kappa)
heavy 1: not shown
heavy 2: not shown
light: DIVMTQSPLSLPVTPGEPASISCQASESLVHSNRNTYLHWYLQKPGQSPQLLIYKVSNRFSGVPDRFSGSGSGTDFTLKISRVEAEDVGVYYCSQNTHVPPTFGQGTKVEIERTVAAPSVFIFPPSDEQLKSGTASVVCLLNNFYPREAKVQWKVDNALQSGNSQESVTEQDSKDSTYSLSSTLTLSKADYEKHKVYACEVTHQGLSSPVTKSFNRGEC
notes: as for B1
B9: GpH7-A5/GpH7-B3 variant D265_07I/GpL16-k0 (antibody, human IgG1, kappa)
heavy 1: not shown
heavy 2: not shown
light: DIVMTQSPLSLPVTPGEPASISCQASESLVHSNRNTYLHWYLQKPGQSPQLLIYKVSNRFSGVPDRFSGSGSGTDFTLKISRVEAEDVGVYYCSQNTHVPPTFGQGTKVEIERTVAAPSVFIFPPSDEQLKSGTASVVCLLNNFYPREAKVQWKVDNALQSGNSQESVTEQDSKDSTYSLSSTLTLSKADYEKHKVYACEVTHQGLSSPVTKSFNRGEC
notes: as for B1
B10: GpH7-A5/GpH7-B3 variant D265_16H/GpL16-k0 (antibody, human IgG1, kappa)
heavy 1: not shown
heavy 2: not shown
light: DIVMTQSPLSLPVTPGEPASISCQASESLVHSNRNTYLHWYLQKPGQSPQLLIYKVSNRFSGVPDRFSGSGSGTDFTLKISRVEAEDVGVYYCSQNTHVPPTFGQGTKVEIERTVAAPSVFIFPPSDEQLKSGTASVVCLLNNFYPREAKVQWKVDNALQSGNSQESVTEQDSKDSTYSLSSTLTLSKADYEKHKVYACEVTHQGLSSPVTKSFNRGEC
notes: as for B1

Legend:
FcγRIa [1] = biological target: T2, FcγRIa (human, UniProt P12314 16-292); assay: SPR; He/Con_1a divided by He/Con_2b (FcγRIIb as reference)
T2 construct: extracellular domain; also called FcgRI; 1a; not shown: His tag at the C terminus

FcγRIa [2] = biological target: T2, FcγRIa; assay: SPR (Biacore), captured antibody, soluble FcγR; relative to GpH7-A5/GpH7-B3/GpL16-k0
FcγRIIb = biological target: T1, FcγRIIb; assay: as above

T2 sequence (P12314 16-292): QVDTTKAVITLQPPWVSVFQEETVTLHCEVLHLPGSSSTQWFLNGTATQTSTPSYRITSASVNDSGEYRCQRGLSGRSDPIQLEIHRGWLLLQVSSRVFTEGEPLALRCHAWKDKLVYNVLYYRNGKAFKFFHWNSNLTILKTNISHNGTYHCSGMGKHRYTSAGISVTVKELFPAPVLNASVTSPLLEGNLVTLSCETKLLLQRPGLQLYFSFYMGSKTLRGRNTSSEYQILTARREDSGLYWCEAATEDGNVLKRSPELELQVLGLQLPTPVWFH

Row | Binder | Ia/IIb He_1a/2b (FcγRIa [1]) [ratio] | He/Con_1a (FcγRIa [2]) | He/Con_2b (FcγRIIb)
1 | B1 | 45.6 | 51.5 relative, HeCon Ab = 100 | 1.1 relative, HeCon Ab = 100
2 | B2 | 4.52 | 27.7 relative, HeCon Ab = 100 | 6.1 relative, HeCon Ab = 100
3 | B3 | 2.9 | 43.2 relative, HeCon Ab = 100 | 14.9 relative, HeCon Ab = 100
4 | B4 | 1.59 | 105 relative, HeCon Ab = 100 | 65.7 relative, HeCon Ab = 100
5 | B5 | 4.9 | 78.5 relative, HeCon Ab = 100 | 16 relative, HeCon Ab = 100
6 | B6 | 2.66 | 101 relative, HeCon Ab = 100 | 38.2 relative, HeCon Ab = 100
7 | B7 | 8.21 | 92.7 relative, HeCon Ab = 100 | 11.3 relative, HeCon Ab = 100
8 | B8 | 2.66 | 88.8 relative, HeCon Ab = 100 | 33.4 relative, HeCon Ab = 100
9 | B9 | 41.2 | 54.4 relative, HeCon Ab = 100 | 1.3 relative, HeCon Ab = 100
10 | B10 | 2.23 | 85.4 relative, HeCon Ab = 100 | 38.3 relative, HeCon Ab = 100
